Source: the supplement of paper PMC10567573

B1: CLCN6 (parent)
chain: VGEIVGIITRHNLTYEFLQARLRQ
B2: FCHSD1 (parent)
chain: LQEPGVFSPTPPQQFQPAGTDQVC
B3: MMP1 (parent)
chain: FVRGDHRDNSPFDGPGGNLAHAFQ

Variants of: B1
Assay: protein stability index of a GFP-peptide fusion (GPS, HEK-293T) (PSI 1-6); higher = more stable
Settings: c terminus: a fixed tail appended
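Note: lentivirally expressed fusions sorted by FACS into six bins by GFP to DsRed ratio, PSI derived from sequencing read proportions per bin multiplied by bin number.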

Protein stability index: each site, then its substitutions
V5: Q 1.37; K 1.38; R 2.55; M 3.11; T 1.49; A 1.89; H 1.92; G 2.29; S 1.83; E 1.76; Y 2.19; N 1.75; P 2.46
I7: L 2.53; H 2.05; D 2.38; Y 3.15; N 2.18; K 1.7; P 2.56; A 1.77; T 1.73; C 2.31; Q 2.72; E 2.07; G 2.44
L22: M 2.37; P 1.53; K 1.93; N 1.15; Y 2.44; W 2.32; H 1.93; Q 2.07; D 1.51; S 2.58; E 1.04; V 3.2; R 2.47
A20: Y 1.04; S 2.02; I 2.56; Q 2.04; L 2.08
R23: Y 4.23; P 1.86; H 1.73; Q 1.69; F 2.58; V 5.95; E 1.2
L13: W 3.73; P 1.94; F 2.15; N 1.08; V 2.04; I 3.13; H 1.51; Q 1.69; M 1.86; C 2.08; G 1.7; E 2.18; A 1.63
F17: H 1.04; P 2.11; C 1.8; E 2.01; T 1.87; I 2.02; Q 2.76; S 2.71; G 3.15
G6: P 1.7; E 4.38; T 3.72; H 2.89; S 2.95
R10: N 2.88; T 3.15; Y 1.93; L 4.12; E 2.92; K 2.19; P 1.75; D 2.73
E16: R 2.46; K 1.52; Q 1.93; W 3.79; H 2.17; L 3.17; P 1.8; S 2.17; G 1.02
N12: Q 4; E 1.16; A 5; K 2.04; D 2.21; I 1.15; H 3.27; G 5.11; C 2.21; P 1.92; R 2.69
R21: T 2.69; Q 2.57; K 1.06; Y 1.86; V 1.67; W 2.19; N 2.01; D 2.76; G 1.89
H11: G 1.76; V 2.32; N 4.18; D 2.48
T9: F 2.35; R 1.4; E 1.38; L 1.89; C 2.71; N 2.88; S 2.77; D 1.92; G 2.63; K 1.29; P 2.78
Q24: A 4.07; Y 2.14; C 3.27; K 1.61; V 2.87; N 2.8; S 2.53; P 2.15; E 3.09; R 1.88
T14: V 2.98; E 1.22; N 2.03; Y 3.07; Q 1.26; F 2.92; A 3.01; L 2.29
I4: S 2.23; R 2.72; D 2.66; N 2.37; C 2.18; F 1.52; E 2.51; M 2.33; P 2.88; T 1.75; K 2.15; L 2.59; G 2.33; H 2.02; V 2.06; Y 2.53; Q 2.38
Y15: K 1.47; R 4.35; S 1.83; Q 2.38; V 1.63; D 1.51; F 2.95; A 2.07; G 1.65; P 1.62
Q19: S 2.49; G 1.52; K 4.39; Y 1.01; I 3.35; P 1.62; E 2.47
L18: P 2.81; N 1.6; Y 4.04; M 2.33; I 2.62; K 2.67; R 2.55; F 2.71; D 2.26; A 2.67; S 1.02; G 1.58; E 3.96; Q 2.07
I8: A 1.27; Q 2.47; L 2.03; N 3.2; E 3.29; S 2.65; Y 1.21; R 2.64; C 1.16; H 1.79; G 2.2

Variants of: B2
Assay: as above
Settings: c terminus: a fixed tail appended

Protein stability index: each site, then its substitutions
T10: G 4.16; W 3.35; M 3.82; S 4.34; C 3.52; V 3.96; N 3.98; E 4.38; K 4; L 4.16; H 4.17; Y 3.38; A 4.56; D 4.67; R 3.54; I 3.65; F 3.5; Q 4.21
A18: W 2.99
Q14: V 4.1; G 2.86
P11: C 2.16; K 3.62; T 4.31; D 4.5; I 4.04; L 3.89; M 4.17; H 4.09; Y 3.65; A 4.41; Q 4.26; G 4.25; E 4.69; F 3.49; V 4.43; W 3.41; N 4.38; R 3.9; S 3.73
S8: W 3.85; R 4.57
P12: V 3.69; W 3.5; G 4.5; F 3.48; C 4.02; E 4.82; D 5.07; H 4.23; Y 3.66; M 4.09; L 3.96; R 4.33; K 4.05; S 4.46; I 4.11; N 4.33; Q 4.45
Q22: W 2.94
F15: C 4.17; G 4.68
Q13: W 3.17; I 3.6; C 4.04; V 4.26; G 3.89; N 4.11; R 4.07; Y 3.74; D 4.55; S 4.16; K 3.78; F 3.8; E 3.75; M 3.96
T20: L 3.61
Q16: L 3.93
P9: I 4.03; Q 4.65; R 4.26; E 4.7; C 4.26; F 4.14; N 4.04; M 4.38; D 4.69; H 4.29; L 4.56; G 4.38; S 4.14; K 4.31; A 4.57; Y 3.81; T 4.69; W 3.67; V 4.3

Variants of: B3
Assay: as above
Settings: c terminus: a fixed tail appended

Protein stability index: each site, then its substitutions
V2: K 3.1; D 3.58; I 1.92; G 3.03; H 2.37; E 3.97; F 2.61; L 3.03; C 1.63; M 3.03; A 1.66
F1: H 3.28; G 3.33; A 3.67; M 3.32; E 3.97; D 4.41; Y 1.81; K 3.56; P 3.59; C 2.64; S 3.33; V 2.83; L 3.52; I 2.82; R 3.36; T 3.78; N 3.66; W 2.48; Q 4.01
